As a reminder, the IC50 is the point on the concentration scale where inhibition reaches its midpoint. Low readings indicate greater potency in that assay, high ones weaker potency in that assay. Broadly, the EC50 is the concentration giving half of the maximal effect. High values mean a need for much substance, low ones an effect from little substance.

For assay [1], the target named is T1, human C3a receptor (C3aR) (human, UniProt Q16581 1-482).
T1 construct: whole, on cells
T1 sequence (looked up): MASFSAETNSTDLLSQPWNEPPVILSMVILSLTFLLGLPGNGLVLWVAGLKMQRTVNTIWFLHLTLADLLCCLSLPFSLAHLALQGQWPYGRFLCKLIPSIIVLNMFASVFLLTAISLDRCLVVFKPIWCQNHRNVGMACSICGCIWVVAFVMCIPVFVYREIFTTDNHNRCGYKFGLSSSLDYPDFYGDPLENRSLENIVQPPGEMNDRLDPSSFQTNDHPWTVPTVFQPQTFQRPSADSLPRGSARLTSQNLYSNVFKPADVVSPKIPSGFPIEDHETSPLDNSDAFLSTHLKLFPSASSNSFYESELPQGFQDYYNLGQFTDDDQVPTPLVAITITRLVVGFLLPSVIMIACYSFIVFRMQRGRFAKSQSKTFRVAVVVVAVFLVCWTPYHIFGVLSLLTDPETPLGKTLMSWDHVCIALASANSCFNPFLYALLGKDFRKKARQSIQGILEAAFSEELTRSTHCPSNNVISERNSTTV
The assay can be described thus: radioligand competition on C3aR-transfected RBL cells (radioligand not given). In general terms: Loss of bound radioactivity is the signal in a displacement assay; it reports binding, not function.

In assay [2] the target is T2, human CD88 (C5a receptor) (human, UniProt P21730 1-350).
T2 construct: whole, on cells
T2 sequence (looked up): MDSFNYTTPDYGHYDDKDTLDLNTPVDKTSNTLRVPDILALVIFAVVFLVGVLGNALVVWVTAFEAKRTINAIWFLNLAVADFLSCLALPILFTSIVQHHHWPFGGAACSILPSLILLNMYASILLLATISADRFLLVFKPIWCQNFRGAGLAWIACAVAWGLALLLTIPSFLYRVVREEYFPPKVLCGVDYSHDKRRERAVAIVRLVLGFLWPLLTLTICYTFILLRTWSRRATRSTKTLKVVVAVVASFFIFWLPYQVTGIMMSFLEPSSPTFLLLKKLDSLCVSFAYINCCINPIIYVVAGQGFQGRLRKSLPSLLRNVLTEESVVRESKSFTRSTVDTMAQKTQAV
Briefly: competition with 50 pM 125I-C5a on CD88-transfected RBL cells, 4 C. The procedure: (§1) Competition binding assays were performed using 50 pM ¹²⁵I-C5a or ¹²⁵I-C3a (NEN) on adherent C5aR-transfected or C5L2-transfected RBL cells in 96-well microtiter plates (55 000/well) at 4° C. as described previously (22). Competition curves were generated by pre-incubating adherent cells with increasing concentrations of unlabelled complement fragments. The IC₅₀, standard error values and linear regression analyses were obtained by using GraphPad Prism 2.0.

For assay [3], the target named is T3, human C5L2 (human, UniProt Q9P296 1-337).
T3 construct: Expressed on stably transfected RBL-2H3 cells, on transiently or stably transfected HEK 293 cells, and endogenously on HSF cells; also called C5L2 receptor
T3 sequence (Q9P296 whole entry): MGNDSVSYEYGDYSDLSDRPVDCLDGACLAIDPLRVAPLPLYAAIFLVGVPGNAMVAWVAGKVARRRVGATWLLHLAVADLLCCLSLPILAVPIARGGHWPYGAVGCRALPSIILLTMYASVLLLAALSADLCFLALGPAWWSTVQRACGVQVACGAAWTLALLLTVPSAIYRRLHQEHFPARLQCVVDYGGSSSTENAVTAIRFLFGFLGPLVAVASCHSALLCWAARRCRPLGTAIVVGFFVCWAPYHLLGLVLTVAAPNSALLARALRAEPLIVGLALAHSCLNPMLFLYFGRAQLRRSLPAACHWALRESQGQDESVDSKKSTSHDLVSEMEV
Briefly: competition with 50 pM 125I-C5a on C5L2-transfected RBL cells, 4 C. The procedure:
as §1

Assay [4] has as its target T3, human C5L2. Briefly: competition with 50 pM 125I-C3a on C5L2-transfected RBL cells, 4 C. As for the experimental part: as §1
In assay [5] the target is T3, human C5L2. Briefly: radioligand competition on transfected RBL cells (Table I).
In assay [6] the target is T3, human C5L2. The assay can be described thus: cell-based or functional assay.
In assay [7] the target is T1, human C3a receptor (C3aR). Briefly: flow cytometry, FLUOS-ASP on HEK 293 cells transiently transfected with C3aR. The procedure:
(§2) HEK 293 cells were transfected with C3aR (A) or C5L2 (B) and three days later cells were incubated for 30 minutes with the indicated concentrations of FLUOS-labelled C3a or ASP, respectively. Binding/uptake was assessed by FACS, and the percentage of cells above a fluorescence intensity of 8 was determined. The fluorescence histograms at the highest and lowest ligand concentrations are shown in the insets;
(§3) Recombinant C3a des-Arg⁷⁷ can clearly compete with ¹²⁵I-C3a for binding to C5L2, so we then directly measured the affinity of C3a des-Arg⁷⁷ for C5L2, using protein purified from human plasma as ASP. ASP and purified human C3a were labelled with FLUOS. Increasing concentrations of ASP were incubated with HEK 293 cells transiently transfected with C5L2 and binding and uptake assessed by flow cytometry (FIG. 2A). FLUOS-ASP clearly binds to C5L2, with half maximal fluorescence intensity at approximately 3 nM, whereas mock-tansfected cells show no binding of ASP even at a high concentration of 10 nM. For comparison purposes, the binding of FLUOS-C3a and FLUOS-ASP to HEK 293 cells transiently transfected with C3aR is shown (FIG. 2B). […] Thus, C5L2 has binding characteristics that overlap with both CD88 and C3aR but also the unique ability to bind ASP/C3a des-Arg⁷⁷.
(A flow cytometer gives signals particle by particle.)

In assay [8] the target is T1, human C3a receptor (C3aR). The assay can be described thus: flow cytometry, binding/uptake of FLUOS-C3a on HEK 293 cells transiently transfected with C3aR, 30 min at 37 C. The procedure:
as §2, §3

Assay [9] has as its target T1, human C3a receptor (C3aR). The assay can be described thus: radioligand competition on C3aR-transfected RBL cells.

B1: recombinant C4a (ligand, UniProt P0C0L4 680-756, looked up)
chain: NVNFQKAINEKLGQYASPTAKRCCQDGVTRLPMMRSCEQRAARVQQPDCREPFLSCCQFAESLRKKSRDKGQAGLQR
notes: domain: C4a; Expressed and purified under non-denaturing conditions
Turning to B1, the concentration for half-maximal inhibition (IC50) in assay [1] is 250 nM; in [2], 4440 nM; in assay [3], 3790 nM; in assay [4] it was 485 nM. The pD2 is 6.6 -log IC50 in assay [1], 5.35 -log IC50 in [2], 5.42 -log IC50 in assay [3] and 6.31 -log IC50 in assay [4].

B2: recombinant C4a des-Arg^77 (ligand, UniProt P0C0L4 680-755, looked up)
chain: NVNFQKAINEKLGQYASPTAKRCCQDGVTRLPMMRSCEQRAARVQQPDCREPFLSCCQFAESLRKKSRDKGQAGLQ
notes: domain: C4a des-Arg^77; Expressed and purified under non-denaturing conditions; also called C4adR^77
Take B2: the “fold higher affinity for C5L2 than for C3aR” value in assay [5] came to 1000 fold. The half-inhibitory concentration (IC50) in assay [1] stood at 100000 nM; in assay [3], 170000 nM; in assay [4] it was 177 nM. Moreover, the pD2 in assay [1] is 4.99 -log IC50; in assay [3] it was 4.72 -log IC50; in assay [4], 6.75 -log IC50. Further, in assay [6], the “activity in the degranulation-enhancement assay against C3a des-Arg^77, C5L2-transfected RBL cells” value turned out to be 230 fold.

B3: recombinant His6-tagged C3a (ligand)
chain: not shown
notes: domain: C3a; Expressed and purified under denaturing conditions; not shown: His6 tag
For the molecule B3, the half-maximal inhibitory concentration (IC50) in [1] was determined as 155 nM; in assay [2], 230000 nM. In addition, the pD2 in [1] is 6.81 -log IC50; in [2] it was 4.64 -log IC50.

B4: recombinant His6-tagged C5a (ligand, UniProt P01031 678-751, looked up)
chain: TLQKKIEEIAAKYKHSVVKKCCYDGACVNNDETCEQRAARISLGPRCIKAFTECCVVASQLRANISHKDMQLGR
notes: domain: C5a; Expressed and purified under denaturing conditions; not shown: His6 tag
As to B4, the half-inhibitory concentration (IC50) in [1] stood at 2900 nM; in assay [2] it was 20.5 nM; in [3] it was 8.17 nM; in assay [4], 293 nM. The pD2 in assay [1] was 5.54 -log IC50; in assay [2], 7.69 -log IC50; in assay [3] it was 8.09 -log IC50; in [4] it was 6.53 -log IC50.

B5: plasma ASP (C3a des-Arg^77), purified from human plasma (ligand)
chain: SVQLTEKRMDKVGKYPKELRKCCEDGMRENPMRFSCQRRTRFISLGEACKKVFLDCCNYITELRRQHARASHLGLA
modifications: FLUOS (fluorescein) label in the flow cytometry assays, ^125I label in one assay; labelled residues not stated
notes: Unlabelled in the functional assays; also called acylation stimulating protein; FLUOS-ASP
Consider B5, for which, in assay [7], the binding result is “no binding”.

B6: plasma C3a, purified human C3a (ligand)
chain: not shown
modifications: FLUOS (fluorescein) label; labelled residues not stated
notes: domain: C3a; also called FLUOS-C3a
In assay [8], B6 had an EC50 of 2.5 nM.

B7: recombinant His6-tagged C5a des-Arg^74 (ligand, UniProt P01031 678-750, looked up)
chain: TLQKKIEEIAAKYKHSVVKKCCYDGACVNNDETCEQRAARISLGPRCIKAFTECCVVASQLRANISHKDMQLG
notes: domain: C5a des-Arg^74; also called C5adR^74; not shown: His6 tag
As for B7, the concentration for half-maximal inhibition (IC50) in assay [1] came out at 9670 nM; in [2], 411 nM; in assay [3], 36.9 nM. For the same molecule, the pD2 was 5.02 -log IC50 in assay [1], 6.39 -log IC50 in assay [2], 7.43 -log IC50 in [3] and < 3 -log IC50 in [4].

B8: recombinant C3a des-Arg^77 (ligand)
chain: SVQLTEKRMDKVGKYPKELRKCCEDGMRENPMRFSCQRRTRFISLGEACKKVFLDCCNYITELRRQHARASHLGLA
notes: Recombinant form, expressed and purified under non-denaturing conditions; also called C3adR^77
As for B8, the pD2 in assay [1] was < 4 -log IC50. Moreover, the binding result in assay [9] was “no binding (tested: pD2 <4)”.
